The values that follow come from US20110165660A1, “ENGINEERED MICROORGANISMS WITH ENHANCED FERMENTATION ACTIVITY” (VERDEZYNE, INC., priority 2009, published 2011).

In this assay the test system is xylose isomerase activity. Nature of the assay: Heterologous xylose isomerase expression in engineered yeast (active yes/no). The following applies: xylose isomerase of the donor organism expressed in engineered yeast (S. cerevisiae).

On to “Actinoplanes missouriensis: xylose isomerase of this donor organism expressed in S. cerevisiae”, for which the “Active? (yes/no)” value is “No”.
Then “Bacteroides thetaiotaomicron: xylose isomerase of this donor organism expressed in S. cerevisiae”, with “Yes”; and “Streptomyces diastaticus subsp diastaticus: xylose isomerase of this donor organism expressed in S. cerevisiae”, with “No”; and “Streptomyces rubiginosus: xylose isomerase of this donor organism expressed in S. cerevisiae”, with “No”.
Turning to “Thermus thermophilus: xylose isomerase (Type 1) of this donor organism expressed in S. cerevisiae”, the “Active? (yes/no)” value was “Yes”.

B1: Clostridium thermosulfurogenes: xylose isomerase of this donor organism expressed in S. cerevisiae (protein, UniProt P19148 1-439, looked up)
Xylose isomerase: MNKYFENVSKIKYEGPKSNNPYSFKFYNPEEVIDGKTMEEHLRFSIAYWHTFTADGTDQFGKATMQRPWNHYTDPMDIAKARVEAAFEFFDKINAPYFCFHDRDIAPEGDTLRETNKNLDTIVAMIKDYLKTSKTKVLWGTANLFSNPRFVHGASTSCNADVFAYSAAQVKKALEITKELGGENYVFWGGREGYETLLNTDMEFELDNFARFLHMAVDYAKEIGFEGQFLIEPKPKEPTKHQYDFDVANVLAFLRKYDLDKYFKVNIEANHATLAFHDFQHELRYARINGVLGSIDANTGDMLLGWDTDQFPTDIRMTTLAMYEVIKMGGFDKGGLNFDAKVRRASFEPEDLFLGHIAGMDAFAKGFKVAYKLVKDRVFDKFIEERYASYKDGIGADIVSGKADFRSLEKYALERSQIVNKSGRQELLESILNQYLFAE
As for B1, the “Active? (yes/no)” value is listed as “No”.

B2: Burkholderia xenovorans: xylose isomerase of this donor organism expressed in S. cerevisiae (protein, UniProt Q13RB8 1-440, looked up)
Xylose isomerase: MSYFEHIPEIRYEGPQSDNPLAYRHYDKSKKVLGKTLEEHLRIAVCYWHTFVWPGVDIFGQGTFRRPWQQAGDAMERARQKADSAFEFFSKLGTPYYTFHDTDVSPEGSSLKEYSENFLRITDYLARKQEDTGIKLLWGTANLFSHPRYAAGAATSPDPEVFAFAATQVRHALDATQRLGGDNYVLWGGREGYDTLLNTDLMRERDQLARFLHMVVDHAHKIGFKGSLLIEPKPQEPTKHQYDYDVATVHGFLLQHGLEKEIRVNIEANHATLAGHSFHHEIATAYALGIFGSVDANRGDPQNGWDTDQFPNSVEELTLAFYEILKHGGFTTGGMNFDSKVRRQSVDPEDLFYGHIGAIDNLALAVERAAVLIENDRLDQFKRQRYAGWDADFGRKILSGDYSLSTLATDALARGLNPQHASGHQELMENIVNQAIYSGR
As for B2, the “Active? (yes/no)” value is recorded as “No”.

B3: Escherichia coli: xylose isomerase of this donor organism expressed in S. cerevisiae (protein, UniProt P00944 1-440, looked up)
Xylose isomerase: MQAYFDQLDRVRYEGSKSSNPLAFRHYNPDELVLGKRMEEHLRFAACYWHTFCWNGADMFGVGAFNRPWQQPGEALALAKRKADVAFEFFHKLHVPFYCFHDVDVSPEGASLKEYINNFAQMVDVLAGKQEESGVKLLWGTANCFTNPRYGAGAATNPDPEVFSWAATQVVTAMEATHKLGGENYVLWGGREGYETLLNTDLRQEREQLGRFMQMVVEHKHKIGFQGTLLIEPKPQEPTKHQYDYDAATVYGFLKQFGLEKEIKLNIEANHATLAGHSFHHEIATAIALGLFGSVDANRGDAQLGWDTDQFPNSVEENALVMYEILKAGGFTTGGLNFDAKVRRQSTDKYDLFYGHIGAMDTMALALKIAARMIEDGELDKRIAQRYSGWNSELGQQILKGQMSLADLAKYAQEHHLSPVHQSGRQEQLENLVNHYLFDK
Regarding B3, the “Active? (yes/no)” value was “No”.

B4: Psudomonas savastanoi: xylose isomerase of this donor organism expressed in S. cerevisiae (protein, UniProt Q48J73 1-438, looked up)
Xylose isomerase: MPYFPAVDKVRYEGPDSDSPLAFRHYDADKLILGKPMREHLRMAACYWHTFVWPGADMFGVGTFKRPWQGSGDPLELAIGKAETAFEFFSKLGIDYYSFHDTDVAPEGSSLKEYRNNFAQMIDQLERHQEQTGIKLLWGTANCFSNPRFAAGAASNPDPEVFAYAATQVFSAMNATQRLKGANYVLWGGREGYETLLNTDLRQEREQLGRFMRMVVEHKHKIGFKGDLLIEPKPQEPTKHQYDYDSATVFGFLQQYGLEKEIKVNIEANHATLAGHSFHHEIATAVSLGIFGSIDANRGDPQNGWDTDQFPNSVEEMTLATYEILKAGGFTNGGYNFDSKVRRQSLDEVDLFHGHVAAMDVLALALERAAAMVQNDKLQQFKDQRYAGWQQPFGKSLLAGEFSLESLAKHAFDKDLNPQAVSGRQELLEGVVNRFIYF
modifications: expressed in S. cerevisiae
B4: the “Active? (yes/no)” value is given as “No”.

B5: Pseudomonas syringae: xylose isomerase of this donor organism expressed in S. cerevisiae (protein)
chain: MHPRVLEVTERLIARSRDTRQRYLQLIRGAASDGPMRGKLQCANFAHGVAACGPEDKQSLRLMNAANVAIVSSYNEMLSAHQPYEHFPAQIKQALRDIGSVGQFAGGVPAMCDGVTQGEPGMELAIASREVIAMSTAIALSHNMFDAAMMLGICDKIVPGLMMGALRFGHLPTIFVPGGPMVSGISNKEKADVRQRYAEGKASREELLDSEMKSYHGPGTCTFYGTANTNQLVMEVMGMHLPGASFVNPYTPLRDALTAEAARQVTRLTMQSGSFMPIGEIVDERSLVNSIVALHATGGSTNHTLHMPAIAQAAGIQLTWQDMADLSEVVP
Turning to B5, the “Active? (yes/no)” value was “No”.

B6: Staphylococcus xylosus: xylose isomerase of this donor organism expressed in S. cerevisiae (protein, UniProt P27157 1-439, looked up)
Xylose isomerase: MSYFDINKVNYEGPKSNNAFSFKYYNPEEKLGNHSMSELLRFSVAYWHTFTADLSDPFGVGVAERDWDSLDEMEKAKARVEAIFEFMEKTRIDYFCFHDVDISPEGASLKESNENLDIIVELIKEKMDQTGKKLLWNTTNNFTHERFVHGAATSSNAEVFAYAAAKVKKSLEIAKKLGSENFVFWGGREGYESLLNTNMKLELDNLATFFKMAKSYADEIGYTGQFLIEPKPKEPTTHQYDTDVATAHAFLQKYDLDKDFKFNIEANHATLAGHTFQHELRYARDNNMLGSVDANQGHPLLGWDTDESTDVYDTTLAMYEILKNGGLAPGGLNFDAKPRRTSFKQEDLILTHIAGMDTFALGLRVAYKMIEDNFFENIMDEKYKSFNEGIGKKIVEGETSLKELEDYAFNINTINNTSDHLEVIKSQINQYILNINNKD
Turning to B6, the “Active? (yes/no)” value is on record as “No”.

B7: Bacillus licheniformis: xylose isomerase of this donor organism expressed in S. cerevisiae (protein, UniProt P77832 1-448, looked up)
Xylose isomerase: MFFRNIGMIEYEGADSENPYAFKYYNPDEFVGGKTMKEHLRFAVAYWHTFDADGKDPFGDGTMFRAWNRLTHPLDKAKARAEAAFEFFEKLGVPYFCFHDVDIVDEGATLRETFTYLDQMSSFLKEMMETSHVQLLWNTANMFTHPRYVHGAATSCNADVYAYAAAKVKKGLDIAKELGAENYVFWGGREGYETLLNTDMKLELENLSSFYRMAVEYAREIGFDGQFLIEPKPKEPTKHQYDFDAATTIAFLETYGLKDHFKLNLEANHATLAGHTFEHELRVAALHDMLGSIDANQGDLLLGWDTDEFPTDLYSAVLAMYEILKAGGFKTGGINFDAKVRRPSFADEDLFHAHIAGMDTYAVGLKVASRLLEDKALDQVIEERYESYTKGIGLEIKEGRTDLKKLAAYALENDHIENQSGRQERLKATVNRYLLNALREAPAGKETH
Regarding B7, the “Active? (yes/no)” value is reported as “No”.

B8: Bacillus subtilis: xylose isomerase of this donor organism expressed in S. cerevisiae (protein, UniProt P0CI80 1-445, looked up)
Xylose isomerase: MAQSHSSSINYFGSANKVVYEGKDSTNPLAFKYYNPQEVIGGKTLKEHLRFSIAYWHTFTADGTDVFGAATMQRPWDHYKGMDLAKMRVEAAFEMFEKLDAPFFAFHDRDIAPEGSTLKETNQNLDMIMGMIKDYMRNSGVKLLWNTANMFTNPRFVHGAATSCNADVFAYAAAQVKKGLETAKELGAENYVFWGGREGYETLLNTDLKFELDNLARFMHMAVDYAKEIGYTGQFLIEPKPKEPTTHQYDTDAATTIAFLKQYGLDNHFKLNLEANHATLAGHTFEHELRMARVHGLLGSVDANQGHPLLGWDTDEFPTDLYSTTLAMYEILQNGGLGSGGLNFDAKVRRSSFEPDDLIYAHIAGMDAFARGLKVAHKLIEDRVFEDVIQHRYRSFTEGIGLEIIEGRANFHTLEQYALNHKSIKNESGRQEKLKAILNQYILEV
modifications: expressed in S. cerevisiae
In the case of B8, the “Active? (yes/no)” value is “No”.

B9: Arabidopsis thaliana: xylose isomerase of this donor organism expressed in S. cerevisiae (protein, UniProt Q9FKK7 1-477, looked up)
Xylose isomerase: MKKVEFFMLLLCFIAASSLVSADPPTCPADLGGKCSDSDDWQGDFFPEIPKIKYEGPSSKNPLAYRWYNAEEEILGKKMKDWFRFSVAFWHTFRGTGGDPFGAATKYWPWEDGTNSVSMAKRRMRANFEFLKKLGVDWWCFHDRDIAPDGTTLEESNKNLDEVIELAKELQKGSKIKPLWGTAQLFLHPRYMHGGATSSEVGVYAYAAAQVKKAMEVTHYLGGENYVFWGGREGYQTLLNTDMGRELDHLARFFEAAVAYKKKIGFKGTLLIEPKPQEPTKHQYDWDAATAANFLRKYGLIDEFKLNIECNHATLSGHTCHHELETARINGLLGNIDANTGDAQTGWDTDQFLTDVGEATMVMMSVIKNGGIAPGGFNFDAKLRRESTDVEDLFIAHISGMDTMARGLRNAVKILEEGSLSELVRKRYATWDSELGKQIEEGKADFEYLEKKAKEFGEPKVSSAKQELAEMIFQSAM
Take B9: the “Active? (yes/no)” value was “No”.
